{"source": "patent US6558918", "proteins": {"B1": {"name": "Cell Growth Regulatory Protein, truncated hybrid protein (residues 1-9 deleted) with N-terminal Glu-Glu tag, expressed in Sf9 cells (protein)", "chain": "MEYMPMEGTRPEMPMPTEGTPPPLSGTPIPVPAYFRHAEPGFSLKRPRGLSRSLPPPPPAKGSIPISRLFPPRTPGWHQLQPRRVSFRGEASETLQSPGYDPSRPESFFQQSFQRLSRLGHGSYGEVFKVRSKEDGRLYAVKRSMSPFRGPKDRARKLAEVGSHEKVGQHPCCVRLEQAWEEGGILYLQTELCGPSLQQHCEAWGASLPEAQVWGYLRDTLLALAHLHSQGLVHLDVKPANIFLGPRGRCKLGDFGLLVELGTAGAGEVQEGDPRYMAPELLQGSYGTAADVFSLGLTILEVACNMELPHGGEGWQQLRQGYLPPEFTAGLSSELRSVLVMMLEPDPKLRATAEALLALPVLRQPRAWGVLWCMAAEALSRGWALWQALLALLCWLWHGLAHPASWLQPLGPPATPPDSPPCSLLLDSSFSSNWDDDSLGPSLSPEAVLARTVGSTSTPRSRCTPRDALDLSDINSEPPRGSFPSFEPRNLLSMFEDTLDPT"}}, "key": {"[1]": {"biological_target": "wild-type Cdc2/cyclin B1 complex, P06493", "sequence (P06493 whole entry, looked up, one chain of several)": "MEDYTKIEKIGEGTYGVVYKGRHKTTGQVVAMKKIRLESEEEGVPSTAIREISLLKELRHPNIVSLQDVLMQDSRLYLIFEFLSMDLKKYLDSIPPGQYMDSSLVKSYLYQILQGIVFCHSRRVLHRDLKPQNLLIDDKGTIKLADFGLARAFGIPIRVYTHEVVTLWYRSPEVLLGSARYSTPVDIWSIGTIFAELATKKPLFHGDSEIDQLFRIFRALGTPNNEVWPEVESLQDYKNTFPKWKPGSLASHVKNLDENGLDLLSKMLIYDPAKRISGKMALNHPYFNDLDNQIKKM"}, "[2]": {"biological_target": "Cdc2-F15/CyclinB1 complex, P06493", "sequence (P06493 whole entry, looked up, one chain of several)": "as above"}, "[3]": {"biological_target": "Cdc2-AF/CyclinB1 complex, P06493", "sequence (P06493 whole entry, looked up, one chain of several)": "as above"}, "[4]": {"biological_target": "Cdc2/cyclin A complex, P06493", "sequence (P06493 whole entry, looked up, one chain of several)": "as above"}, "[5]": {"biological_target": "Cdk4/cyclin D1 complex, P11802", "sequence (P11802 whole entry, looked up, one chain of several)": "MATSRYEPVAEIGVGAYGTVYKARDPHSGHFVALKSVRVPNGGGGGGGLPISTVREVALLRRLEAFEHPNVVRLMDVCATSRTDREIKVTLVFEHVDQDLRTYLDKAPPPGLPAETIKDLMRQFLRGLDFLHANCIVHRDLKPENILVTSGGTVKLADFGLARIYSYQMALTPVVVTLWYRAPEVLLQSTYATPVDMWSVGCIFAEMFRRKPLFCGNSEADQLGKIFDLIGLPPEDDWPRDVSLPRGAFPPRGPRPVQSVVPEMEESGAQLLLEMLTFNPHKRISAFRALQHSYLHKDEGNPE"}, "[6]": {"biological_target": "monomeric Cdc2, P06493", "sequence (P06493 whole entry, looked up)": "as the sequence (P06493 whole entry, looked up, one chain of several) above"}, "[7]": {"biological_target": "Cdk2/cyclin A complex, P24941"}, "[8]": {"biological_target": "kinase-deficient Cdc2 mutant (K-) complexed with cyclin B1, P06493", "sequence (P06493 whole entry, looked up, change not shown, one chain of several)": "as the sequence (P06493 whole entry, looked up, one chain of several) above"}, "[9]": {"biological_target": "Cdk2/cyclin E complex, P24941"}, "[10]": {"biological_target": "Cdc2-A14/cyclin B1 complex, P06493", "sequence (P06493 whole entry, looked up, one chain of several)": "as above"}}, "data": [{"protein": "B1", "values": [{"measurement": "32P-labeling in a kinase reaction with affinity purified proteins, SDS-PAGE", "setting": "[1]", "value": "both purified Cell Growth Regulatory Protein and Wee1 kinases were capable of phosphorylating wild-type Cdc2 as well as a kinase-deficient Cdc2 mutant (K-), each of which was complexed with cyclin B1"}, {"measurement": "32P-labeling in a kinase reaction with the Cdc2/cyclin B1 complex reconstituted from monomers", "setting": "[1]", "value": "reconstitution of the Cdc2/cyclin B1 complex, by pre-incubating monomeric Cdc2 with monomeric cyclin B1, enabled Cell Growth Regulatory Protein to phosphorylate Cdc2"}, {"measurement": "histone H1 kinase activity (Cdc2 kinase activation) in mixed Sf9 lysates", "setting": "[1]", "value": "a dramatic reduction in Cdc2 kinase activation was observed, similar to that observed for Wee1"}, {"measurement": "immunoblotting of mixed lysates with phosphotyrosine antibodies", "setting": "[1]", "value": "showed that Cdc2 was phosphoryalted on Tyrosine 15 to some extent"}, {"measurement": "histone H1 kinase activity (Cdc2 kinase activation) in mixed Sf9 lysates", "setting": "[2]", "value": "such lysates also inhibited both Cdc2-A14 and Cdc2-F15 activation"}, {"measurement": "32P-labeling in a kinase reaction with affinity purified proteins, SDS-PAGE", "setting": "[3]", "value": "the Cdc2-AF mutant was not phosphorylated by Cell Growth Regulatory Protein or Wee1"}, {"measurement": "histone H1 kinase activity in mixed Sf9 lysates", "setting": "[4]", "value": "greatly reduced histone H1 kinase activity compared to a mock-treated or Cdc2-AF control lysate"}, {"measurement": "32P-labeling in a kinase reaction with purified proteins", "setting": "[5]", "value": "neither Cell Growth Regulatory Protein nor Wee1 phosphorylated the Cdk4 subunit"}, {"measurement": "32P-labeling in a kinase reaction with monomeric Cdc2 as substrate", "setting": "[6]", "value": "Cell Growth Regulatory Protein did not phosphorylate monomeric Cdc2"}, {"measurement": "32P-labeling in a kinase reaction with purified proteins", "setting": "[7]", "value": "Cell Growth Regulatory Protein failed to phosphorylate Cdk2 that was complexed with either cyclin A or cyclin E"}, {"measurement": "histone H1 kinase activity in mixed Sf9 lysates, wild-type Cdk2 against Cdk2-AF", "setting": "[7]", "value": "an equivalent amount of histone H1 kinase activity was present in wild-type Cdk2 and Cdk2-AF lysates that had been mixed with either cyclin A or cyclin E lysates in the presence of Cell Growth Regulatory Protein"}, {"measurement": "32P-labeling in a kinase reaction with affinity purified proteins, SDS-PAGE", "setting": "[8]", "value": "both purified Cell Growth Regulatory Protein and Wee1 kinases were capable of phosphorylating wild-type Cdc2 as well as a kinase-deficient Cdc2 mutant (K-), each of which was complexed with cyclin B1"}, {"measurement": "phosphoamino acid analysis of 32P-labeled Cdc2", "setting": "[8]", "value": "phosphorylation occurred only on threonine residues"}, {"measurement": "32P-labeling in a kinase reaction with purified proteins", "setting": "[9]", "value": "Cell Growth Regulatory Protein failed to phosphorylate Cdk2 that was complexed with either cyclin A or cyclin E"}, {"measurement": "histone H1 kinase activity in mixed Sf9 lysates, wild-type Cdk2 against Cdk2-AF", "setting": "[9]", "value": "an equivalent amount of histone H1 kinase activity was present in wild-type Cdk2 and Cdk2-AF lysates that had been mixed with either cyclin A or cyclin E lysates in the presence of Cell Growth Regulatory Protein"}, {"measurement": "histone H1 kinase activity (Cdc2 kinase activation) in mixed Sf9 lysates", "setting": "[10]", "value": "such lysates also inhibited both Cdc2-A14 and Cdc2-F15 activation; Cdc2-A14 lysates consistently retain some histone H1 kinase activity"}]}]}
